Values quoted from earlier work, collected in publication PMC10743670.
Like-named read-outs stand apart in the source and are kept apart here.

Key:
[1] = molecular target: Asp85 (UniProt position 85, EIRYIDWLVTT); settings: ground state
[2] = molecular target: Asp85 (UniProt position 98, WAQYADWLFTT); settings: ground state of the R82Q mutant
[3] = molecular target: Asp97 (UniProt position 97, VFRYIDWLLTV); settings: ground state
[4] = molecular target: T1, Asp85 (UniProt position 98, WARYADWLFTT); settings: ground (unphotolysed) state of bacteriorhodopsin; purple-to-blue transition
[5] = molecular target: T1, Asp85; assay: other (described only as 'a titration of bacteriorhodopsin'); settings: bacteriorhodopsin with the proton release group deprotonated

Exiguobacterium sibiricum rhodopsin (ESR) (Exiguobacterium sibiricum)
pKa [1]: <2

Bacteriorhodopsin R82Q mutant (Halobacterium salinarum (printed as Halobacterium halobium); R82Q)
pKa [2]: ≈7.5

Proteorhodopsin (PR) (uncultured marine gamma-proteobacterium (printed as 'marine γ-proteobacteria'))
pKa [3]: ∼7.0

Bacteriorhodopsin (bR) (Halobacterium salinarum (printed as Halobacterium halobium))
pKa [4]: ≈2.7 | pKa [5]: ≈7.5

Exiguobacterium sibiricum rhodopsin (ESR) H57M mutant (Exiguobacterium sibiricum; H57M)
pKa [1]: 6.3
